Laboratory results as given in US20200317776A1 (published 2020).

T1: human TREM2 expressed on cells (human, UniProt Q9NZC2 19-230)
T1 construct: BW5147.G.1.4 cells stably expressing human TREM2 together with Dap12, or endogenous TREM2 of primary human myeloid cells; also called huT2 BW; hTREM2 expressing cell line
T1 sequence: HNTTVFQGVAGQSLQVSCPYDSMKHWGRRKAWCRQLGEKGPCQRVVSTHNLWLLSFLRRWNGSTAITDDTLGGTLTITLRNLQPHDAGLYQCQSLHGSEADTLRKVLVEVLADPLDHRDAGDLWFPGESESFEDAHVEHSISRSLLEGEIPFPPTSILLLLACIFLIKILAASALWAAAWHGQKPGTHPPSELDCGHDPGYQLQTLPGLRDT

T2: human TREM2 Fc fusion (entire TREM2 ECD; only one Fc arm fused to TREM2) (human, UniProt Q9NZC2 19-174)
T2 construct: also called huTREM2-Fc; recombinant hTREM2
T2 sequence: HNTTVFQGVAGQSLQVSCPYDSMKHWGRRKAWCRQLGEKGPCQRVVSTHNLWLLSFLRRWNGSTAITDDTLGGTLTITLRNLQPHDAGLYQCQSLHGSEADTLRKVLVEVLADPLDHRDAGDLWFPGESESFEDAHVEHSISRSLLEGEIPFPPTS

T3: cynomolgus monkey TREM2 Fc fusion (entire TREM2 ECD; only one Fc arm fused to TREM2) (cynomolgus monkey, UniProt Q9NZC2 19-174 (human entry))
T3 construct: also called cyno TREM2-Fc
T3 chain: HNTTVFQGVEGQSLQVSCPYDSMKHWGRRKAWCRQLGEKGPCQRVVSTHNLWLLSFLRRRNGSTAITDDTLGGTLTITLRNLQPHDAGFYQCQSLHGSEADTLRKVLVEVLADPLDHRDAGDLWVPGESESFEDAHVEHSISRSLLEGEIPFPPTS


Key:
[1] = molecular target: T1, human TREM2 expressed on cells; experiment: FACS, human DCs
From the text: (§1) To examine cell binding of affinity matured anti-TREM2 antibodies, both primary human monocyte derived dendritic cells and recombinant, human TREM2 expressing cells were utilized. For the latter, BW5147.G.1.4 (ATCC® TIB48™) and HEK293T cells stably expressing human TREM2 together with Dap12 using viral infection were established. For primary human monocyte derived dendritic cells, human monocytes were isolated from whole blood using RosetteSep Human monocyte enrichment cocktail (Stemcell technologies) and Ficoll centrifugation per manufacturer protocols. After lysing red blood cells with ACK lysing buffer, monocytes were resuspended in complete media (RPMI, 10% FBS, Pen/Strep, L-glutamine, HEPES, non-essential amino acid, Sodium pyruvate) with 100 ng/ml human GM-CSF (hu-GMCSF) and, human IL-4 (hu-IL-4) to differentiate dendritic cells for 6 days.
(§2) Cells were harvested by trypsinization (Hek293T) or scraping (BW and dendritic cells), washed in PBS, counted and plated on 96-well U bottom plates at […] cells/well. The plates were spun at 1,400 rpm for 3 minutes and primary TREM2 or control antibodies were added in FACS buffer (PBS+2% FBS) and incubated on ice for one hour. Cells were subsequently centrifuged as before and washed thrice with FACS buffer. Cells were then incubated with anti-human PE conjugated secondary antibody (BD Biosciences) in FACS buffer for 30 minutes on ice. Cells were again washed thrice with FACS buffer and analyzed on a BD FACS Canto or an Intellicyt Flow Cytometer. Binding was measured as mean fluorescence intensity in the APC channel.

[2] = molecular target: T2, human TREM2 Fc fusion (entire TREM2 …); experiment: BLI, Fab, monovalent
[3] = molecular target: T3, cynomolgus monkey TREM2 Fc fusion …; experiment: BLI, Fab, monovalent
[4] = molecular target: T1, human TREM2 expressed on cells; experiment: FACS, hTREM2 BW cells
From the text: as §1, §2

[5] = molecular target: T1, human TREM2 expressed on cells; experiment: cell-based or functional assay
[6] = molecular target: human TREM2/DAP12 fusion protein (human, UniProt O43914 41-113, limits assumed); experiment: cell-based or functional assay
Sequence of human TREM2/DAP12 fusion protein (O43914 other isoform, or with tags, fused parts or gaps limits assumed): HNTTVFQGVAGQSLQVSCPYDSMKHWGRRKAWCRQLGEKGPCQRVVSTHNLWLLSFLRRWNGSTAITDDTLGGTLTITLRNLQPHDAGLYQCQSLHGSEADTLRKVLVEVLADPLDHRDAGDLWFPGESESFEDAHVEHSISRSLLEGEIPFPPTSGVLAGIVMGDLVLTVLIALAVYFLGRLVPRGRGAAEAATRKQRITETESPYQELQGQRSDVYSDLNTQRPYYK

Row | Binder | MFI [1] | Kd [2] | Kd [3] | Kd [4] | BW Luc assay plate bound 7.3 nM IgG, FOC [6] | BW Luc assay soluble 7.3 nM IgG, FOC [6] | DC viability (AUC) [5] | Mac viability (AUC) [5]
1 | AL2p-39 (antibody, V domains shown, Fab and IgG formats under one id) VH: QVQLVQSGAEVKKPGSSVKVSCKASGYAFSSHWMNWVRQAPGQGLEWMGRIYPGGGDTNYAQKFRGRVTITADESTSTAYMELSSLRSEDTAVYYCARLLRNQPGASYAMDYWGQGTLVTVSS VL: GVVMTQTPLSLSVTPGQPASISCRSSRSLVHSNQYTYLHWYLQKPGQSPQLLIYKVSNRRSGVPDRFSGSGSGTDFTLKISRVEAEDVGVYYCSQSTRVPYTFGQGTKLEIK | 590 MFI | 0.631 nM | 0.346 nM | 1.53 nM | 8.12 FOC | 3.81 FOC | 851000 AUC | 66900 AUC
2 | AL2p-41 (antibody, IgG1, V domains shown, Fab and IgG formats under one id) VH: QVQLVQSGAEVKKPGSSVKVSCKASGYAFSSHWMNWVRQAPGQGLEWMGRIYPGEGDTNYAQKFRGRVTITADESTSTAYMELSSLRSEDTAVYYCARLLRNQPGASYAMDYWGQGTLVTVSS VL: GVVMTQTPLSLSVTPGQPASISCRSSRSLVHSNQYTYLHWYLQKPGQSPQLLIYKVSNRRSGVPDRFSGSGSGTDFTLKISRVEAEDVGVYYCSQSTRVPYTFGQGTKLEIK | 534 MFI | 0.724 nM | 0.352 nM | 1.31 nM | 7.61 FOC | 2.92 FOC | 860000 AUC | 80700 AUC
3 | AL2p-42 (antibody, V domains shown, Fab and IgG formats under one id) VH: QVQLVQSGAEVKKPGSSVKVSCKASGYAFSSHWMNWVRQAPGQGLEWMGRIYPGEGDTNYAQKFRGRVTITADESTSTAYMELSSLRSEDTAVYYCARLLRNQPGASYAMDYWGQGTLVTVSS VL: GVVMTQTPLSLSVTPGQPASISCRTSRSLVHSNRYTYLHWYLQKPGQSPQLLIYKVSNRRSGVPDRFSGSGSGTDFTLKISRVEAEDVGVYYCSQSTRVPYTFGQGTKLEIK | 662 MFI | 0.829 nM | 0.312 nM | 1.91 nM | 6.52 FOC | 5.95 FOC | 781000 AUC | 57900 AUC
4 | AL2p-40 (antibody, IgG1, V domains shown, Fab and IgG formats under one id) VH: QVQLVQSGAEVKKPGSSVKVSCKASGYAFSSHWMNWVRQAPGQGLEWMGRIYPGGGDTNYAQKFRGRVTITADESTSTAYMELSSLRSEDTAVYYCARLLRNQPGASYAMDYWGQGTLVTVSS VL: GVVMTQTPLSLSVTPGQPASISCRTSRSLVHSNRYTYLHWYLQKPGQSPQLLIYKVSNRRSGVPDRFSGSGSGTDFTLKISRVEAEDVGVYYCSQSTRVPYTFGQGTKLEIK | 547 MFI | 0.602 nM | 0.37 nM | 2.27 nM | 8.49 FOC | 9.92 FOC | 825000 AUC | 63200 AUC
5 | AL2p-44 (antibody, IgG1, V domains shown, Fab and IgG formats under one id) VH: QVQLVQSGAEVKKPGSSVKVSCKASGYAFSSHWMNWVRQAPGQGLEWMGRIYPGGGDTNYARKFRGRVTITADESTSTAYMELSSLRSEDTAVYYCARLLRNQPGASYAMDYWGQGTLVTVSS VL: GVVMTQTPLSLSVTPGQPASISCRTSRSLVHSNRYTYLHWYLQKPGQSPQLLIYKVSNRRSGVPDRFSGSGSGTDFTLKISRVEAEDVGVYYCSQSTRVPYTFGQGTKLEIK | 1470 MFI | 0.41 nM | 0.271 nM | 4.18 nM | 7.17 FOC | 11.5 FOC | 750000 AUC | 74700 AUC

The next lines start with results.

Row | MFI [1] | Kd [2] | Kd [3] | Kd [4] | BW Luc assay plate bound 7.3 nM IgG, FOC [6] | BW Luc assay soluble 7.3 nM IgG, FOC [6] | Binder | DC viability (AUC) [5] | Mac viability (AUC) [5]
6 | 235 MFI | 23.9 nM | 36.1 nM | 1.8 nM | 1.19 FOC | 2.07 FOC | AL2p-50 (antibody, V domains shown, Fab and IgG formats under one id) VH: QVQLVQSGAEVKKPGSSVKVSCKASGYAFSSHWMNWVRQAPGQGLEWMGRIYPGEGDTNYAQKFHGRVTITADESTSTAYMELSSLRSEDTAVYYCARLLRNQPGESYAMDYWGQGTLVTVSS VL: DVVMTQTPLSLSVTPGQPASISCRTSQSLVHSNAYTYLHWYLQKPGQSPQLLIYKVSNRVSGVPDRFSGSGSGTDFTLKISRVEAEDVGVYYCSQSTRVPYTFGQGTKLEIK | 286000 AUC | -10400 AUC
7 | 187 MFI | 13 nM | 16.1 nM | 1.33 nM | 1.64 FOC | 2.98 FOC | AL2p-46 (antibody, V domains shown, Fab and IgG formats under one id) VH: QVQLVQSGAEVKKPGSSVKVSCKASGYAFSSDWMNWVRQAPGQGLEWMGRIYPGEGDTNYARKFQGRVTITADESTSTAYMELSSLRSEDTAVYYCARLLRNKPGESYAMDYWGQGTLVTVSS VL: DVVMTQTPLSLSVTPGQPASISCRTSQSLVHSNQYTYLHWYLQKPGQSPQLLIYKVSNRVSGVPDRFSGSGSGTDFTLKISRVEAEDVGVYYCSQSTRVPYTFGQGTKLEIK | 597000 AUC | 6040 AUC
8 | 413 MFI | 11.6 nM | 14.1 nM | 1.15 nM | 3.12 FOC | 3.28 FOC | AL2p-49 (antibody, V domains shown, Fab and IgG formats under one id) VH: EVQLVQSGAEVKKPGSSVKVSCKASGYAFSSDWMNWVRQAPGQGLEWMGRIYPGEGDTNYARKFHGRVTITADESTSTAYMELSSLRSEDTAVYYCARLLRNKPGESYAMDYWGQGTLVTVSS VL: DVVMTQTPLSLSVTPGQPASISCRTSQSLVHSNQYTYLHWYLQKPGQSPQLLIYKVSNRVSGVPDRFSGSGSGTDFTLKISRVEAEDVGVYYCSQSTRVPYTFGQGTKLEIK | 754000 AUC | 15100 AUC
9 | 408 MFI | 11.2 nM | 14.9 nM | 1.4 nM | 3.25 FOC | 3.65 FOC | AL2p-48 (antibody, V domains shown, Fab and IgG formats under one id) VH: QVQLVQSGAEVKKPGSSVKVSCKASGYAFSSDWMNWVRQAPGQGLEWMGRIYPGEGDTNYARKFHGRVTITADESTSTAYMELSSLRSEDTAVYYCARLLRNKPGESYAMDYWGQGTLVTVSS VL: DVVMTQTPLSLSVTPGQPASISCRTSQSLVHSNQYTYLHWYLQKPGQSPQLLIYKVSNRVSGVPDRFSGSGSGTDFTLKISRVEAEDVGVYYCSQSTRVPYTFGQGTKLEIK | 770000 AUC | 23600 AUC
10 | 318 MFI | 17.8 nM | 20.9 nM | 1.54 nM | 2.29 FOC | 2.38 FOC | AL2p-45 (antibody, V domains shown, Fab and IgG formats under one id) VH: QVQLVQSGAEVKKPGSSVKVSCKASGYAFSSDWMNWVRQAPGQGLEWMGRIYPGEGDTNYARKFQGRVTITADESTSTAYMELSSLRSEDTAVYYCARLLRNKPGESYAMDYWGQGTLVTVSS VL: DVVMTQTPLSLSVTPGQPASISCRTSQSLVHSNAYTYLHWYLQKPGQSPQLLIYKVSNRVSGVPDRFSGSGSGTDFTLKISRVEAEDVGVYYCSQSTRVPYTFGQGTKLEIK | 543000 AUC | 3680 AUC
